Test in all cases: BLI (Octet), antigen-Fc captured on anti-human Fc (AHC) biosensor, MSAP in solution
For orientation: BLI is a label-free optical method that tracks binding on a fibre tip over time.

Assay [1] has as its target T1, Cynomolgus/Rhesus CD19 Protein (Fc Tag) (Sino Biological, Inc) (cynomolgus monkey (Cynomolgus/Rhesus), UniProt F7F486 20-292 (rhesus entry)).
T1 construct: Bought reagent; also called cynoCD19.Fc; cynomolgus CD19 antigen
T1 sequence: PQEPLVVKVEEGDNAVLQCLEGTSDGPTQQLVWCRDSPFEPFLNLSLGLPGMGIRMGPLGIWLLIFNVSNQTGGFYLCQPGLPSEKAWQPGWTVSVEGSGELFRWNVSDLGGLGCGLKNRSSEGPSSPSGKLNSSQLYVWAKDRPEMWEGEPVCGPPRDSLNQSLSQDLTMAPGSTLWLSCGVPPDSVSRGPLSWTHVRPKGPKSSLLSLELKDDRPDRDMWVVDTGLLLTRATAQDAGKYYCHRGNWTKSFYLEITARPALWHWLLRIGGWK
Here is the method: (§1) The expression of the CD3 antigen constructs has been described in U.S. Pat. No. 8,846,042. The CD3 antigen constructs or the CD19 antigen (Cynomolgus/Rhesus CD19 Protein (Fc Tag), Sino Biological. Inc; Recombinant Human CD19 Fc Chimera, R&D Systems. Inc) were diluted to 0.02 mg/mL with dilution (PBS), and then immobilized on an anti-Human Fc capture (AHC) biosensor. […] Control wells containing PBS only were also set up. The detection results were analyzed using ForteBio Data Acquisition and ForteBio Data Analysis software.

Assay [2] has as its target T2, Recombinant Human CD19 Fc Chimera (R&D Systems, Inc) (human, UniProt P15391 20-291).
T2 construct: Bought reagent; also called huCD19.Fc; human CD19 antigen; Fc part of the bought chimera not given
T2 sequence (looked up): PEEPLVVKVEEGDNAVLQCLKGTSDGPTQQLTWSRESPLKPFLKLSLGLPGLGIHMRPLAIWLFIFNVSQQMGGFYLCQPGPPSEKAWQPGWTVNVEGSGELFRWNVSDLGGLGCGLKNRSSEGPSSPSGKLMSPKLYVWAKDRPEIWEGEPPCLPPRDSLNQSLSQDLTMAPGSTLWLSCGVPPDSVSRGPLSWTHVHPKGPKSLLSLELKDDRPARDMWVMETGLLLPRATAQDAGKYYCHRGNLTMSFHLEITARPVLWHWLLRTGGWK
Here is the method:
as §1

The target of assay [3] is T3, cynomolgus CD3 antigen construct cynoCD3εAA 1-27.Fc (cynomolgus monkey; human, UniProt Q95LI5 22-48).
T3 construct: range 1-27; not shown: human IgG Fc
T3 chain (looked up): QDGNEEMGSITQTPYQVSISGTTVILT
The method, then: as §1

These results are taken from patent US20220064295A1 (ITABMED HK, published 2022).

Usually Kd stands for the concentration at which binding is half-saturated.

B1: ITAB2007 CD19×CD3 MSAP (bispecific antibody)
chain 1: DVVMTQSPSSIPVTLGESVSISCRSSKSLQNVNGNTYLYWFQQRPGQSPQLLIYRMSNLNSGVPDRFSGSGSGTDFTLRISGVEPEDVGVYYCMQHLEYPLTFGAGTKLEIKGGGGSGGGGSGGGGSQVQLVQSGPELIKPGGSVKMSCKASGYTFTSYVMHWVRQKPGQGLEWIGYINPYNDGTKYNEKFKGRATLTSDKSSSTAYMELSSLRSEDSAVYYCARGTYYYGSRVFDYWGQGTTVTVSSGGGGSEVQLVESGGGLVQPGGSLRLSCAASGFTFNTYAMNWVRQAPGKGLEWVARIRSKYNNYATYYADSVKDRFTISRDDSKNTLYLQMNSLRAEDTAVYYCVRHGNFGNSYVSWFAYWGQGTMVTVSSASTKGPSVFPLAPSSKSTSGGTAALGCLVKDYFPEPVTVSWNSGALTSGVHTFPAVLQSSGLYSLSSVVTVPSSSLGTQTYICNVNHKPSNTKVDKKVEPKSCPPCS
chain 2: DVVMTQSPSSIPVTLGESVSISCRSSKSLQNVNGNTYLYWFQQRPGQSPQLLIYRMSNLNSGVPDRFSGSGSGTDFTLRISGVEPEDVGVYYCMQHLEYPLTFGAGTKLEIKGGGGSGGGGSGGGGSQVQLVQSGPELIKPGGSVKMSCKASGYTFTSYVMHWVRQKPGQGLEWIGYINPYNDGTKYNEKFKGRATLTSDKSSSTAYMELSSLRSEDSAVYYCARGTYYYGSRVFDYWGQGTTVTVSSGGGGSQAVVTQEPSLTVSPGGTVTLTCRSSTGAVTTSNYANWVQQKPGQAPRGLIGGTNKRAPGTPARFSGSLLGGKAALTLSGVQPEDEAEYYCALWYSNLWVFGGGTKLTVLGQPKAAPSVTLFPPSSEELQANKATLVCLISDFYPGAVTVAWKADSSPVKAGVETTTPSKQSNNKYAASSYLSLTPEQWKSHRSYSCQVTHEGSTVEKTVAPTECPPCS
notes: One anti-CD19 scFv is fused at the N-terminus of the VH and a second at the N-terminus of the VL of an anti-CD3 Fab fragment; also called CD19×CD3 MSAP ITAB2007; bispecific trivalent ITAB2007
Consider B1, for which the equilibrium dissociation constant (Kd) in assay [1] turned out to be 8.91 nM; in assay [2], 0.891 nM; in assay [3] it was 18.8 nM.

B2: ITAB2009 CD19×CD3 MSAP (bispecific antibody)
chain 1: EVQLVESGGGLVQPGGSLRLSCAASGFTFNTYAMNWVRQAPGKGLEWVARIRSKYNNYATYYADSVKDRFTISRDDSKNTLYLQMNSLRAEDTAVYYCVRHGNFGNSYVSWFAYWGQGTMVTVSSGGGGSGGGGSGGGGSQAVVTQEPSLTVSPGGTVTLTCRSSTGAVTTSNYANWVQQKPGQAPRGLIGGTNKRAPGTPARFSGSLLGGKAALTLSGVQPEDEAEYYCALWYSNLWVFGGGTKLTVLSGGGGSQVQLVQSGPELIKPGGSVKMSCKASGYTFTSYVMHWVRQKPGQGLEWIGYINPYNDGTKYNEKFKGRATLTSDKSSSTAYMELSSLRSEDSAVYYCARGTYYYGSRVFDYWGQGTTVTVSSASTKGPSVFPLAPSSKSTSGGTAALGCLVKDYFPEPVTVSWNSGALTSGVHTFPAVLQSSGLYSLSSVVTVPSSSLGTQTYICNVNHKPSNTKVDKKVEPKSCPPCS
chain 2: DVVMTQSPSSIPVTLGESVSISCRSSKSLQNVNGNTYLYWFQQRPGQSPQLLIYRMSNLNSGVPDRFSGSGSGTDFTLRISGVEPEDVGVYYCMQHLEYPITFGAGTKLEIKRTVAAPSVFIFPPSDEQLKSGTASVVCLLNNFYPREAKVQWKVDNALQSGNSQESVTEQDSKDSTYSLSSTLTLSKADYEKHKVYACEVTHQGLSSPVTKSFNRGECPPCS
notes: also called CD19×CD3 MSAP ITAB2009; bivalent format ITAB2009
Consider B2, for which the results for the Kd in assay [1], in assay [2] and in assay [3] were 29.6 nM, 18.2 nM and 12.9 nM, respectively.
